Test results published in patent US20040072266A1, “Method of modifying cell motility via compounds and polypeptides that interact with a Wnt pathway” (priority 2002, published 2004).

B1: Wnt5a: Wnt polypeptide supplied as media pre-conditioned by 293T cells expressing Wnt5a (mouse Wnt 5A per b63) (protein, UniProt P22725 62-380, looked up)
Protein Wnt-5a: IIGAQPLCSQLAGLSQGQKKLCHLYQDHMQYIGEGAKTGIKECQYQFRHRRWNCSTVDNTSVFGRVMQIGSRETAFTYAVSAAGVVNAMSRACREGELSTCGCSRAARPKDLPRDWLWGGCGDNIDYGYRFAKEFVDARERERIHAKGSYESARILMNLHNNEAGRRTVYNLADVACKCHGVSGSCSLKTCWLQLADFRKVGDALKEKYDSAAAMRLNSRGKLVQVNSRFNSPTTQDLVYIDPSPDYCVRNESTGSLGTQGRLCNKTSEGMDGCELMCCGRGYDQFKTVQTERCHCKFHWCCYVKCKKCTEIVDQFVCK
modifications: conditioned medium from 293T cells
B2: Wnt1: Wnt polypeptide supplied as media pre-conditioned by 293T cells expressing Wnt1 (mouse Wnt 1 per b63) (protein, UniProt P04426 28-370, looked up)
Proto-oncogene Wnt-1: ANSSGRWWGIVNIASSTNLLTDSKSLQLVLEPSLQLLSRKQRRLIRQNPGILHSVSGGLQSAVRECKWQFRNRRWNCPTAPGPHLFGKIVNRGCRETAFIFAITSAGVTHSVARSCSEGSIESCTCDYRRRGPGGPDWHWGGCSDNIDFGRLFGREFVDSGEKGRDLRFLMNLHNNEAGRTTVFSEMRQECKCHGMSGSCTVRTCWMRLPTLRAVGDVLRDRFDGASRVLYGNRGSNRASRAELLRLEPEDPAHKPPSPHDLVYFEKSPNFCTYSGRLGTAGTAGRACNSSSPALDGCELLCCGRGHRTRTQRVTERCNCTFHWCCHVSCRNCTHTRVLHECL
modifications: conditioned medium from 293T cells

Test system: NIH3T3 cells
Assay: Wnt conditioned media treatment of NIH3T3 cells, phalloidin actin staining, protrusion/filopodia count
Format: cell-based, mouse
Details: NIH3T3 cells on fibronectin treated cover slips, 15 minutes in conditioned media, Alexa568 phalloidin staining
Procedure: FIG. 1: Wnt treatment increases the protrusive activity of NIH3T3 cells. NIH3T3 cells were plated at low density on fibronectin treated cover slips. After being allowed to re-attach for 12 hours, cells were placed into media that was pre-conditioned either by control 293T cells (A), 293T cells expressing Wnt1 (B) or 293T cells expressing Wnt5a (C and D). After 15 minutes in conditioned media, cells were fixed and stained with Alexa568 conjugated phalloidin to label the actin cyto-skeleton. Wnt treated cells contained higher numbers of actin based protrusions relative to control. These included filopodia (arrows in B and C) as well as membrane ruffles (arrows in D). E. The number of filopodia per cell was counted for NIH3T3 cells treated as described above. […] Columns represent the average number of filopodia per cell. N=50, 80, 76 cells for control, Wnt1 and Wnt5a, respectively. Error bars represent the standard error of the mean for each group shown.
We can use Wnt conditioned media as a source of Wnt polypeptides and fragments of them in testing the ability of a cell to modify its cell motility characteristics. […]
In FIG. 1, we show the […] after the Wnt treatment. […] The degree of motility can be measured through the number of filopodia, for example, or through assyas that measure the levels or increases in cytoskeletal proteins. […]

Molecule	number of filopodia per cell relative to control
B1	significant increase
B2	significant increase
